These results are taken from patent US20260116982A1.

The target of this assay is CD1a antigen on CD1a+ T-ALL cells (Jurkat, MOLT4, primary cortical T-ALL blasts) and cortical thymocytes (human) (UniProt P06126). The experiment in a line: cell-based or functional assay.

“CD1a CAR (second-generation chimeric antigen receptor with the anti-CD1a scFv derived from clone NA1/34.HLK, CD8 TM spacer, 4-1BB (CD137) and CD3ζ signaling domains), expressed on T cells” gave a specific cell lysis of CD1a+ T-ALL cell lines (Jurkat, MOLT4), 16 h assay, E:T 2:1 or 4:1 of 50 to 80%.
